{"source": "paper PMC4363599", "about": "“A Purification Method for a Molecular Complex in Which a Scaffold Molecule Is Fully Loaded with Heterogeneous Molecules”", "binders": {"B1": {"name": "fBCD35g immobilized on resin (XNA)", "RNA": "GGUUCAGCUGAGGCGAAAGCCGGUGAUGCUGAAUC", "modifications": "2'-fluoro on all pyrimidines"}, "B2": {"name": "BCD35 2'-fPy-RNA (XNA)", "RNA": "GGUUCAGCUGACUCGAAAGGGCGUGAUGCUGAAUC", "modifications": "2'-fluoro on all pyrimidines"}}, "key": {"[1]": {"molecular_target": "Alexa Fluor 633-labelled L7Ae (UniProt O29494 1-119)", "sequence (O29494 whole entry)": "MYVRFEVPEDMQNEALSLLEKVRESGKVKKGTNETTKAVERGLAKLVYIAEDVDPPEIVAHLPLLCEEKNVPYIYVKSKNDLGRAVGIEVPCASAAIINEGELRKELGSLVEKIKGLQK", "experiment": "pull-down; fBCD35g resin removes most free L7Ae; SPR as in ref 9 (L7Ae chip, RNA analyte); resin and plate assays in assay buffer at room temperature; buffer composition, salt and pH not given in the material", "conditions": "protein: recombinant; tags: His tag; Alexa Fluor 633 by amine coupling; label: resin-immobilized"}, "L7Ae": {"molecular_target": "L7Ae (UniProt O29494 1-119)", "sequence (O29494 whole entry)": "as above", "experiment": "SPR; no signal up to 2 uM RNA; SPR as in ref 9 (L7Ae chip, RNA analyte); resin and plate assays in assay buffer at room temperature; buffer composition, salt and pH not given in the material", "conditions": "protein: recombinant; tags: His tag (pET28b-His-L7Ae-cmyc-His named as the L7Ae expression plasmid); immobilized on SPR chip"}}, "data": [{"binder": "B1", "values": [{"measurement": "binding result", "setting": "[1]", "value": "binds"}]}, {"binder": "B2", "values": [{"measurement": "binding result", "setting": "L7Ae", "value": "no binding"}]}]}
